The values that follow come from article PMC10938568.

The experiment has as its target GST-PreScission-p62 FIR 4P (human) (UniProt Q13501). As to the kind of experiment: SPR. On the technique in general: In SPR one partner is held on a chip, and binding of the other changes the refractive index at the surface.

For “His8-TEV-LC3B (1 to 125) (from UniProt Q9GZQ8 1-120) (natural protein)”, the Kd estimated from the kinetics is 80 nM and the half-life (in general, the time needed for the level to fall by half in the phase considered) is 20 min.
